Source: patent US20120201781A1 (AbbVie / Abbott, published 2012)

Assays:
recombinant human IL-1α [1] = target: T1, recombinant human IL-1α (human, UniProt P01583 113-271); assay: SPR (Biacore)
T1 construct: Purified recombinant protein bought from R&D Systems; also called hIL-1α; rhIL-1α
T1 sequence: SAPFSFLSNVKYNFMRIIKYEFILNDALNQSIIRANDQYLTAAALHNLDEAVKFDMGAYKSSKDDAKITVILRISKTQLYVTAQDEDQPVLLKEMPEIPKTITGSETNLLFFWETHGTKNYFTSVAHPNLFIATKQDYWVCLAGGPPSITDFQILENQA

recombinant human IL-1β [2] = target: T2, recombinant human IL-1β (human, UniProt P01584 117-269); assay: SPR (Biacore)
T2 construct: Recombinant protein; also called hIL-1β; rhIL-1β

recombinant human IL-1α [3] = target: T1, recombinant human IL-1α; assay: cell-based or functional assay
recombinant human IL-1β [4] = target: T2, recombinant human IL-1β; assay: cell-based or functional assay
recombinant human IL-1β [5] = target: T2, recombinant human IL-1β; assay: cell-based or functional assay; remark: listed apart in the source
recombinant human IL-1β [6] = target: T2, recombinant human IL-1β; assay: SPR (Biacore), mAb captured via goat anti-mouse IgG

B1: hIL-1α/β DVD5b-Ig (bispecific antibody, human IgG1, kappa)
heavy: not shown
light: QIVLTQSPAIMSASPGEKVTITCSASSSVSYMHWFQQKPGASPKLWIYSTSNLASGVPARFSGSGSGTSYSLTVSRMEAEDAATYYCQQRSTYPYTFGGGTKLEIKRTVAAPQIVLTQSPALMSASPGEKVTMTCSASSSVNYMYWYQQKPRSSPKPWIYLTSNLASGVPARFSGSGSGTSYSLTISSMEAEDAATYYCQQWNSNPYTFGGGTKLEMKRTVAAPSVFIFPPSDEQLKSGTASVVCLLNNFYPREAKVQWKVDNALQSGNSQESVTEQDSKDSTYSLSSTLTLSKADYEKHKVYACEVTHQGLSSPVTKSFNRGEC
notes: 6B12.4F6 (outer) - short linker - 6H3.1A4.3E11 (inner), b-a-C orientation
Recombinant human IL-1α [1]
  Kd: 13.2 nM
Recombinant human IL-1β [2]
  Kd: 0.671 nM
Recombinant human IL-1α [3]
  Potency (IC50) M, MRC-5 bioassay: 3.3 nM
Recombinant human IL-1β [4]
  Potency (IC50) M, MRC-5 bioassay: 0.25 nM

B2: hIL-1α/β DVD5a-Ig (bispecific antibody, human IgG1, kappa)
heavy: not shown
light: QIVLTQSPALMSASPGEKVTMTCSASSSVNYMYWYQQKPRSSPKPWIYLTSNLASGVPARFSGSGSGTSYSLTISSMEAEDAATYYCQQWNSNPYTFGGGTKLEMKRTVAAPQIVLTQSPAIMSASPGEKVTITCSASSSVSYMHWFQQKPGASPKLWIYSTSNLASGVPARFSGSGSGTSYSLTVSRMEAEDAATYYCQQRSTYPYTFGGGTKLEIKRTVAAPSVFIFPPSDEQLKSGTASVVCLLNNFYPREAKVQWKVDNALQSGNSQESVTEQDSKDSTYSLSSTLTLSKADYEKHKVYACEVTHQGLSSPVTKSFNRGEC
notes: 6H3.1A4.3E11 (outer) - short linker - 6B12.4F6 (inner), a-b-C orientation
Recombinant human IL-1α [1]
  Kd: 0.508 nM
Recombinant human IL-1β [2]
  Kd: 12.5 nM
Recombinant human IL-1α [3]
  Potency (IC50) M, MRC-5 bioassay: 2.6 nM
Recombinant human IL-1β [4]
  Potency (IC50) M, MRC-5 bioassay: 19 nM

B3: hIL-1α/β DVD4b-Ig (bispecific antibody, human IgG1, kappa)
heavy: not shown
light: ETTVTQSPASLSMAIGEKVTIRCITSTDIDVDMNWYQQKPGEPPKLLISQGNTLRPGVPSRFSSSGSGTDFVFIIENMLSEDVADYYCLQSDNLPLTFGAGTKLELKRTVAAPSVFIFPPDIVMTQSQRFMSTSVGDRVSVTCKASQNVGTNIAWYQQKPGQSPRALIYSASYRYSGVPDRFTGSGSGTDFTLTISNVQSVDLAEYFCQQYTRYPLTFGGGTKLEIKRTVAAPSVFIFPPSDEQLKSGTASVVCLLNNFYPREAKVQWKVDNALQSGNSQESVTEQDSKDSTYSLSSTLTLSKADYEKHKVYACEVTHQGLSSPVTKSFNRGEC
notes: 1B12.4H4 (outer) - long linker - 18F4.2C8 (inner), b-a-C orientation
Recombinant human IL-1α [1]
  Kd: 0.56 nM
Recombinant human IL-1β [2]
  Kd: 0.128 nM
Recombinant human IL-1α [3]
  Potency (IC50) M, MRC-5 bioassay: 0.35 nM
Recombinant human IL-1β [4]
  Potency (IC50) M, MRC-5 bioassay: 0.5 nM

B4: hIL-1α/β DVD6b-Ig (bispecific antibody, human IgG1, kappa)
heavy: not shown
light: QIVLTQSPAIMSASPGEKVTITCSASSSVSYMHWFQQKPGASPKLWIYSTSNLASGVPARFSGSGSGTSYSLTVSRMEAEDAATYYCQQRSTYPYTFGGGTKLEIKRTVAAPSVFIFPPQIVLTQSPALMSASPGEKVTMTCSASSSVNYMYWYQQKPRSSPKPWIYLTSNLASGVPARFSGSGSGTSYSLTISSMEAEDAATYYCQQWNSNPYTFGGGTKLEMKRRTVAAPSVFIFPPSDEQLKSGTASVVCLLNNFYPREAKVQWKVDNALQSGNSQESVTEQDSKDSTYSLSSTLTLSKADYEKHKVYACEVTHQGLSSPVTKSFNRGEC
notes: 6B12.4F6 (outer) - long linker - 6H3.1A4.3E11 (inner), b-a-C orientation
Recombinant human IL-1α [1]
  Kd: 0.82 nM
Recombinant human IL-1β [2]
  Kd: 0.697 nM
Recombinant human IL-1α [3]
  Potency (IC50) M, MRC-5 bioassay: 1 nM
Recombinant human IL-1β [4]
  Potency (IC50) M, MRC-5 bioassay: 0.75 nM

B5: hIL-1α/β DVD4a-Ig (bispecific antibody, human IgG1, kappa)
heavy: not shown
light: DIVMTQSQRFMSTSVGDRVSVTCKASQNVGTNIAWYQQKPGQSPRALIYSASYRYSGVPDRFTGSGSGTDFTLTISNVQSVDLAEYFCQQYTRYPLTFGGGTKLEIKRTVAAPSVFIFPPETTVTQSPASLSMAIGEKVTIRCITSTDIDVDMNWYQQKPGEPPKLLISQGNTLRPGVPSRFSSSGSGTDFVFIIENMLSEDVADYYCLQSDNLPLTFGAGTKLELKRTVAAPSVFIFPPSDEQLKSGTASVVCLLNNFYPREAKVQWKVDNALQSGNSQESVTEQDSKDSTYSLSSTLTLSKADYEKHKVYACEVTHQGLSSPVTKSFNRGEC
notes: 18F4.2C8 (outer) - long linker - 1B12.4H4 (inner), a-b-C orientation
Recombinant human IL-1α [1]
  Kd: 0.701 nM
Recombinant human IL-1β [2]
  Kd: 0.93 nM
Recombinant human IL-1α [3]
  Potency (IC50) M, MRC-5 bioassay: 0.35 nM
Recombinant human IL-1β [4]
  Potency (IC50) M, MRC-5 bioassay: 10 nM

B6: hIL-1α/β DVD6a-Ig (bispecific antibody, human IgG1, kappa)
heavy: not shown
light: QIVLTQSPALMSASPGEKVTMTCSASSSVNYMYWYQQKPRSSPKPWIYLTSNLASGVPARFSGSGSGTSYSLTISSMEAEDAATYYCQQWNSNPYTFGGGTKLEMKRTVAAPSVFIFPPQIVLTQSPAIMSASPGEKVTITCSASSSVSYMHWFQQKPGASPKLWIYSTSNLASGVPARFSGSGSGTSYSLTVSRMEAEDAATYYCQQRSTYPYTFGGGTKLEIKRRTVAAPSVFIFPPSDEQLKSGTASVVCLLNNFYPREAKVQWKVDNALQSGNSQESVTEQDSKDSTYSLSSTLTLSKADYEKHKVYACEVTHQGLSSPVTKSFNRGEC
notes: 6H3.1A4.3E11 (outer) - long linker - 6B12.4F6 (inner), a-b-C orientation
Recombinant human IL-1α [1]
  Kd: 1.06 nM
Recombinant human IL-1β [2]
  Kd: 2.09 nM
Recombinant human IL-1α [3]
  Potency (IC50) M, MRC-5 bioassay: 2.3 nM
Recombinant human IL-1β [4]
  Potency (IC50) M, MRC-5 bioassay: 70 nM

B7: murine monoclonal antibody 6B12.4F6 (antibody, V domains shown)
VH: EVQLQQSGPELVKTGTSVKISCKASGYSFTGYYMHWVRQSHGKSLEWIGYISCYNGFTSYNPKFKGKATFTVDTSSSTAYIQFSRLTSEDSAVYYCARSDYYGTNDYWGQGTTLTVSS
VL: QIVLTQSPAIMSASPGEKVTITCSASSSVSYMHWFQQKPGASPKLWIYSTSNLASGVPARFSGSGSGTSYSLTVSRMEAEDAATYYCQQRSTYPYTFGGGTKLEIKR
notes: Murine hybridoma mAb, anti-hIL-1β
Recombinant human IL-1β [2]
  Kd: 0.554 nM
Recombinant human IL-1β [5]
  IC50 (M), MRC-5 bioassay (inhibition of IL-8 production): 3.2e-10 M
Recombinant human IL-1β [4]
  IC50 (M), MRC-5 bioassay: 4e-10 M
Recombinant human IL-1β [6]
  Kd: 0.554 nM

B8: hIL-1α/β DVD3a-Ig (bispecific antibody, human IgG1, kappa)
heavy: not shown
light: DIVMTQSQRFMSTSVGDRVSVTCKASQNVGTNIAWYQQKPGQSPRALIYSASYRYSGVPDRFTGSGSGTDFTLTISNVQSVDLAEYFCQQYTRYPLTFGGGTKLEIKRTVAAPETTVTQSPASLSMAIGEKVTIRCITSTDIDVDMNWYQQKPGEPPKLLISQGNTLRPGVPSRFSSSGSGTDFVFIIENMLSEDVADYYCLQSDNLPLTFGAGTKLELKRRTVAAPSVFIFPPSDEQLKSGTASVVCLLNNFYPREAKVQWKVDNALQSGNSQESVTEQDSKDSTYSLSSTLTLSKADYEKHKVYACEVTHQGLSSPVTKSFNRGEC
notes: 18F4.2C8 (outer) - short linker - 1B12.4H4 (inner), a-b-C orientation
Recombinant human IL-1α [1]
  Kd: 0.837 nM
Recombinant human IL-1β [2]
  Kd: 63.7 nM
Recombinant human IL-1α [3]
  Potency (IC50) M, MRC-5 bioassay: 0.75 nM

B9: hIL-1α/β DVD3b-Ig (bispecific antibody, human IgG1, kappa)
heavy: not shown
light: ETTVTQSPASLSMAIGEKVTIRCITSTDIDVDMNWYQQKPGEPPKLLISQGNTLRPGVPSRFSSSGSGTDFVFIIENMLSEDVADYYCLQSDNLPLTFGAGTKLELKRTVAAPDIVMTQSQRFMSTSVGDRVSVTCKASQNVGTNIAWYQQKPGQSPRALIYSASYRYSGVPDRFTGSGSGTDFTLTISNVQSVDLAEYFCQQYTRYPLTFGGGTKLEIKRTVAAPSVFIFPPSDEQLKSGTASVVCLLNNFYPREAKVQWKVDNALQSGNSQESVTEQDSKDSTYSLSSTLTLSKADYEKHKVYACEVTHQGLSSPVTKSFNRGEC
notes: 1B12.4H4 (outer) - short linker - 18F4.2C8 (inner), b-a-C orientation
Recombinant human IL-1α [1]
  Kd: 1.24 nM
Recombinant human IL-1β [2]
  Kd: 0.19 nM
Recombinant human IL-1α [3]
  Potency (IC50) M, MRC-5 bioassay: 0.7 nM
Recombinant human IL-1β [4]
  Potency (IC50) M, MRC-5 bioassay: 0.4 nM

B10: murine monoclonal antibody 1B12.4H4 (antibody, V domains shown)
VH: QVHLKESGPGLVAPSQSLSITCTVSGFSLTDYGVSWIRQPPGKGLEWLGLIWGGGDTYYNSPLKSRLSIRKDNSKSQVFLKMNSLQTDDTAVYYCAKQRTLWGYDLYGMDYWGQGTSVTVSS
VL: ETTVTQSPASLSMAIGEKVTIRCITSTDIDVDMNWYQQKPGEPPKLLISQGNTLRPGVPSRFSSSGSGTDFVFIIENMLSEDVADYYCLQSDNLPLTFGAGTKLELKR
notes: as for B7
Recombinant human IL-1β [2]
  Kd: 0.261 nM
Recombinant human IL-1β [5]
  IC50 (M), MRC-5 bioassay (inhibition of IL-8 production): 5.3e-10 M
Recombinant human IL-1β [4]
  IC50 (M), MRC-5 bioassay: 6e-10 M
Recombinant human IL-1β [6]
  Kd: 0.213 nM
